Source: PMC12756740, “A GH42 β‑Galactosidase from the Human Isolate Bifidobacterium breve DSM 20213: Biochemical and Transgalactosylation Properties Reveal the Potential for Galacto-oligosaccharides Synthesis” (ACS Omega, 2025)

Substrate: O=[N+]([O-])c1ccccc1O[C@@H]1O[C@H](CO)[C@H](O)[C@H](O)[C@H]1O
Experiment: purified protein
Assay type: biochemical, Bifidobacterium breve
Details: 50 mM sodium phosphate pH 6.5, 30 °C, 0.01-22 mM oNPG

B1: Bbreβgal-III (Bifidobacterium breve DSM 20213 = JCM 1192) (protein)
chain: MEHREFKWPQPLAGGKPRIWYGGDYNPDQWPEEVWDEDVALMQKAGVNLVSVAIFSWAKLEPEEGVYDFDWLDRVIDKLGKAGIAVDLASGTASPPMWMTQAHPEILWVDYRGDVCQPGARQHWRATSPVFLDYALNLCRKMAEHYKDNPYVVSWHVSNEYGCHNRFDYSEDAERAFQKWCEKKYGTIDAVNDAWGTAFWAQRMNNFSEIIPPRFIGDGNFMNPGKLLDWKRFSSDALLDFYKAERDALLEIAPKPQTTNFMVSAGGAGIDYDKWGYDVDFVSNDHYFTPGEAHFDELAYSASLCDGIARKNPWFLMEHSSSAVNWRPINYRVEPGELVRDSLAHLAMGSDAICYFQWRQSKAGAEKWHSSMVPHAGPDSQIFRDVCELGADLNKLADEGLLSTKLVKSKVAVVFDYESQWATEHTATPTQEVRHWTEPLAWFRALADNGLTADVVPVRGPWDEYEAVVLPSLTILSEETTRRVREYVANGGKLFVTYYTGLVDDKDHVWLGGYPGSIRDVVGVRVEEFAPMGNDFPGAIDHLDLDNGTVAHDFADVITSVADTAHVVAAFKADKWTGFDGAPAITVNDFGDGKAAYIGARLGREGLAKSLPALLEELGIETSAEDDRGEVLRVERADETGENHFVFLFNRTHDVAIVDVDGEPLVASLAQVNESEHTAAIQPNGVLVVKL
notes: pET21a(+) NdeI/NotI, His-tagged, E. coli BL21 Star (DE3), IMAC purified
B1 showed a Km of 1570 ± 160 µM, a Vmax of 3650 µmol/min/mg and a kcat of 4690 ± 260 s⁻¹. It also gave a kcat/Km of 2.99e+06 ± 140000 M⁻¹ s⁻¹.
